Measured values from article PMC5737734 (Journal of molecular biology, 2011).

Columns and labels:
[1] = target: DnaK, wild type, with a C-terminal hexahistidine tag (E. coli, UniProt P0A6Y8 1-638); experiment: SPR
DnaK V389A = DnaK V389A (E. coli, UniProt P0A6Y8 1-638, V389A); experiment: SPR

- binding result [1]: binds
- binding result (DnaK V389A): binds
B1: DnaJ with the biotin carboxyl carrier protein (BCCP) fused at the C-terminus (natural protein, E. coli, UniProt P08622 1-376, looked up)
chain: MAKQDYYEILGVSKTAEEREIRKAYKRLAMKYHPDRNQGDKEAEAKFKEIKEAYEVLTDSQKRAAYDQYGHAAFEQGGMGGGGFGGGADFSDIFGDVFGDIFGGGRGRQRAARGADLRYNMELTLEEAVRGVTKEIRIPTLEECDVCHGSGAKPGTQPQTCPTCHGSGQVQMRQGFFAVQQTCPHCQGRGTLIKDPCNKCHGHGRVERSKTLSVKIPAGVDTGDRIRLAGEGEAGEHGAPAGDLYVQVQVKQHPIFEREGNNLYCEVPINFAMAALGGEIEVPTLDGRVKLKVPGETQTGKLFRMRGKGVKSVRGGAQGDLLCRVVVETPVGLNERQKQLLQELQESFGGPTGEHNSPRSKSFFDGVKKFFDDLTR
